This assay deals with T1, 单核细胞增生李斯特氏菌鞭毛蛋白免疫原 (Listeria monocytogenes, UniProt Q02551 1-287).
T1 construct: Native flagellin preparation concentrated by ultrafiltration, not a recombinant protein; purity beyond the 33 kD band is not described; also called 免疫原蛋白; 抗原
T1 sequence (looked up): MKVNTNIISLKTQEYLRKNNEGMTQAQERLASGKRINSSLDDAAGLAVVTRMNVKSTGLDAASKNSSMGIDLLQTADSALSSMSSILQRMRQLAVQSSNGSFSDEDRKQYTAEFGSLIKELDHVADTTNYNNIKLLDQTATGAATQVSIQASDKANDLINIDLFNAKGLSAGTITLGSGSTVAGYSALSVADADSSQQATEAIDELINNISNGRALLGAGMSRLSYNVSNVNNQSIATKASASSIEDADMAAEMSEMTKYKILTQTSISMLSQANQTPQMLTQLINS
The assay can be described thus: IAsys Plus optical biosensor, immunogen immobilised on CMD cuvette, antibody at 5 concentrations, FASTfit.

B1: LM3F6单克隆抗体 (antibody, V domains shown)
VH: VKPGGSLKLSCAASSWAQYINTMSWVRQTPDKRLEWVAIISYYSRDKYYPDSVKGRFTISRDQDKQTLYLQMSSLKSEDTAMYYCPYTRPPVIWMTWGQGTTVTVS
VL: DLVMTQTAPSVPVTPGESVSISCRSTQGYCRKLVGDYLYWFLQRPGQSPQLLIYWHPNLASGVPDRFSGSGSGTAFTLRISRVEAEDVGVYYCLCCRCKSGGFGSGTKLEIK
For the molecule B1, the Kd (commonly the concentration at which binding is half-saturated) amounted to 2.46 nM.

B2: LM6G3单克隆抗体 (antibody, V domains shown)
VH: VKPGGSLKLSCAASITAQPSPRMSWVRQTPDKRLEWVAICFEKKIGLYYPDSVKGRFTISRDQDKQTLYLQMSSLKSEDTAMYYCEHEWWDEQVSPWGQGTTVTVS
VL: DLVMTQTAPSVPVTPGESVSISCRSTFKPWPKYEPLHLYWFLQRPGQSPQLLIYMWFNLASGVPDRFSGSGSGTAFTLRISRVEAEDVGVYYCMNACCYYRQFGSGTKLEIK
As to B2, the Kd turned out to be 8.73 nM.
